The values below come from patent US11959098B2, “Methods and culture media for culturing pluripotent stem cells” (Technion Research & Development Foundation Limited, priority 2010, dated 2024).

In assay [1] the test system is C2 cell line (iPS cell line derived from foreskin fibroblast). Briefly: Endodermal differentiation of pluripotent stem cells cultured in suspension. The assay is classed as cell-based, human. Here is the method:
Differentiation into endodermal cells—Cells cultured in suspension with cell clumps from C2 cell line (iPS cell line derived from foreskin fibroblast) were cultured in suspension for at least 10 passages. Then the factors were removed from the culture medium and the cells were exposed to 10 ng/ml Activin for 48 hours, in medium containing cAMP increasers such as foreskulin, 8-bromocAMP, GABA, IBMX and DBC. Ten days later the cells were analyzed for endodermal markers. […] As shown in FIGS. 10A-10B the differentiated cells express PDX1, a transcription factor indicating differentiation into endoderm lineage, mainly into β-cells.
C2 cells were cultured for more than 10 passages as single cells in suspension in the pCM100F culture medium. For endoderm differentiation, the bFGF and the IL6RIL6 chimera were removed from the culture medium and activin A at concentration of 10 ng/ml was added for 48 hours in a suspension culture. 10 days after exposure to activin A, the cells were plated on Matrigel™ or HFF (human foreskin fibroblast) matrix, or were cultured in a 3-dimensional culture system (in suspension) and were stained to PDX1.

For assay [2], the system named is hESCs cultured in suspension. Put plainly: Neural differentiation of pluripotent stem cells cultured in suspension. The note with it: hESC single cells; retinoic acid (10^−3 M) or Noggin (10 ngr/ml); three weeks after induction. Type of assay: cell-based, human. Here is the method: Neural differentiation—To induce neural differentiation single cells cultured in suspension were transferred to a medium without bFGF and the IL6RIL6 chimera. Either retinoic acid (10^−3 M) or Noggin (10 ngr/ml) were added for three to seven days. Three weeks after differentiation induction, the cells were plated for staining with fibronectin. The cells were stained for O4 (oligodendrocytes marker), GFAP (Glial fibrillary acidic protein), nestin and β-tubulin.
Differentiation into neuronal cells—Cells from the four tested cell lines (I3, I4, I6 and H9.2) were cultured in suspension with cell clump for at least 25 passages. Then, the factors were removed from the culture medium and 5×10^−5 M Retinoic acid was added for 21 Days. The cells were then transferred to fibronectin coated plates and cultured for additional 5 days before harvesting the cells for analysis.
Human ESCs which are cultured in suspension as single cells are capable of differentiating into the neuronal cell linage—To induce neural differentiation, hESCs which are cultured in suspension as single cells were transferred to a neuronal differentiating medium (without bFGF and the IL6RIL6 chimera) which included either retinoic acid (10^−3 M) or Noggin (10 ngr/ml) as described under “General Materials and Experimental Methods” hereinabove. […]

The mark [3] stands for this setting: C2 clumps, 10 ng/ml for 48 hours with cAMP increasers, ten days later.

“Also recorded” adds a separate entry of the source.

B1: activin A: activin A at concentration of 10 ng/ml added for endoderm differentiation (protein, UniProt P08476 311-426, looked up)
Inhibin beta A chain: GLECDGKVNICCKKQFFVSFKDIGWNDWIIAPSGYHANYCEGECPSHIAGTSGSSLSFHSTVINHYRMRGHSPFANLKSCCVPTKLRPMSMLYYDDGQNIIKKDIQNMIVEECGCS
modifications: Inhibin beta A chain
In the case of B1, in assay [1] (setting [3]), the “PDX1 expression (immunofluorescence)” value was “express PDX1” and the “Sox17 expression (quantitative RT-PCR) versus non-treated controls” value is “significant increase in Sox17 expression”. Moreover, the “SOX 17 gene expression (real time PCR)” value in assay [1] (C2 single cells, 10 ng/ml for 48 hours in suspension) is “an increase could be observed during differentiation from day 2 to 10”. For the same molecule, the “PDX1 expression (immunostaining)” value in assay [1] (C2 single cells, 10 ng/ml for 48 hours, 10 days after exposure) is reported as “all cells which are stained by DAPI (nuclear staining) are also stained with PDX1; also recorded: expression of PDX1 in the cells”.

B2: Noggin: Noggin (10 ngr/ml) added to induce neural differentiation (protein, UniProt Q13253 28-232, looked up)
Noggin: QHYLHIRPAPSDNLPLVDLIEHPDPIFDPKEKDLNETLLRSLLGGHYDPGFMATSPPEDRPGGGGGAAGGAEDLAELDQLLRQRPSGAMPSEIKGLEFSEGLAQGKKQRLSKKLRRKLQMWLWSQTFCPVLYAWNDLGSRFWPRYVKVGSCFSKRSCSVPEGMVCKPSKSVHLTVLRWRCQRRGGQRCGWIPIQYPIISECKCSC
B2: the “differentiation into neuronal progenitor cells (GFAP, O4, β-Tubulin, Nestin staining)” value in assay [2] is “differentiated into neuronal progenitor cells”.
